Laboratory results taken from article PMC4574047, “Biochemical Characterization of Putative Adenylate Dimethylallyltransferase and Cytokinin Dehydrogenase from Nostoc sp. PCC 7120” (PLoS ONE, 2015).

T1: NoIPT1 (Nostoc sp. PCC 7120 = FACHB-418, UniProt A0ACD7S271)
T1 construct: gene all0220; full gene in pET-28b(+) (NdeI/SalI), N-terminal polyhistidine tag kept; E. coli BL21(DE3) STAR
T1 sequence (A0ACD7S271 1-244): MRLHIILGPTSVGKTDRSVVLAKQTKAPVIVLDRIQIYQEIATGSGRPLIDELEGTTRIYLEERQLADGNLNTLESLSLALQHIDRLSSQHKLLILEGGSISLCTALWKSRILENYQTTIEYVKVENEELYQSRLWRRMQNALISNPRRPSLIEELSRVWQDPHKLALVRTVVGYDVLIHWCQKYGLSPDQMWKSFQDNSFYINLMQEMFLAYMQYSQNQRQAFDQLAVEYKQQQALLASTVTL


Key:
NoIPT1 = target: T1, NoIPT1; experiment: HPLC-UV product determination; trans-zeatin-5'-monophosphate formed; type: biochemical; settings: with AMP, 10 mM MgCl2, pH 7.5, 25°C
purified protein [1] = substrate: CC(C)=CCOP(=O)(O)OP(=O)(O)O; experiment: purified protein; type: biochemical, Nostoc sp. PCC 7120 = FACHB-418; settings: 20 μM AMP, 10 mM MgCl2, 100 mM Tris/HCl pH 7.5, 25°C
purified protein [2] = substrate: Nc1ncnc2c1ncn2[C@@H]1O[C@H](COP(=O)(O)O)[C@@H](O)[C@H]1O; experiment: purified protein; type: biochemical, Nostoc sp. PCC 7120 = FACHB-418; settings: 150 μM DMAPP, 10 mM MgCl2, 100 mM Tris/HCl pH 7.5, 25°C

Molecule	HPLC-UV product determination; trans-zeatin-5'-monophosphate formed (NoIPT1)	Km (purified protein [1]) [µM]	Km (purified protein [2]) [µM]
C/C(=C\COP(=O)(O)OP(=O)(O)O)CO [HMBPP, (E)-4-hydroxy-3-methyl-but-2-enyl diphosphate]	NoIPT1 used a hydroxylated side chain precursor, HMBPP, to form trans-zeatin-5´-monophosphate in the reaction with AMP	–	–
NoIPT1 (Nostoc sp. PCC 7120 = FACHB-418) (protein, full gene in pET-28b(+) (NdeI/SalI), N-terminal polyhistidine tag kept; E. coli BL21(DE3) STAR) MRLHIILGPTSVGKTDRSVVLAKQTKAPVIVLDRIQIYQEIATGSGRPLIDELEGTTRIYLEERQLADGNLNTLESLSLALQHIDRLSSQHKLLILEGGSISLCTALWKSRILENYQTTIEYVKVENEELYQSRLWRRMQNALISNPRRPSLIEELSRVWQDPHKLALVRTVVGYDVLIHWCQKYGLSPDQMWKSFQDNSFYINLMQEMFLAYMQYSQNQRQAFDQLAVEYKQQQALLASTVTL	–	27.05 ± 2.47	0.63 ± 0.18
